This series is described as follows: soluble fraction after stress (log2 fold change); higher = more stays soluble; pooled small domains, quantitative proteomics. The note with it: stress: pH 4. An outline of the steps:
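Following acid stress at pH 4, the amount of each small protein domain still soluble was measured in pooled custom libraries by high-throughput quantitative proteomics. Its fold change, on a log2 scale, is higher when more of the domain stayed soluble. This fold change is taken as a measure of aggregation propensity.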
Consider “HMDAMQAFPNPTVDEIHFVTPTTGRVYNAHGQLVMVLKNAQLVNVRQWSAGQYVIVREDGYAVRWIK”, for which the “soluble fraction (log2)” value is -0.43.

For the sequence “HMDAPQRVTYLLPHSRGEVVSWLHRQGEVVAQEYEAEGVRVVVDLRYAQIRQAAKQFDVLPAEG”, the “soluble fraction (log2)” value is -0.656. For “HMDAPRFAAGDAVRVAGLVSKPQHNGRAGSVLSYDPVSLRYIVKVDGEDEPLKLKPENVLMPA” the value was 0.0764; for “HMDAQLRVPDLTPYNYSELKENTSLYEGFTIEVVEERSTGDYAAGTVLDQDPKADTLIQDGDSTVIKLVIA”, -0.115.

As to “HMDASFTYSLETHPAGVLVRVDGLEYETPFSILLPQGVHRLEVAGEERFFYLSETTHQFLEID”, the “soluble fraction (log2)” value is -0.714.

For the sequence “HMDATGDPIADRILQALQLGELTRTQVNNVFQRHLAAARISQALNFLRSLKRADMRMEETAGRSGEVWFAI”, the “soluble fraction (log2)” value was -0.254. As for “HMDAVKKKVQSTNTLLDVLKQMLPQTSSNTLRKMLTNQRITVDGETIHRAKHTVEKDQTVEIHPKP”, the figure is at least 0.43; as for “HMDAVSYTQFMQDAKAGRIKKVIVHQSGILDVTTTEGRRFNLTSPGDLWMVGDLVKDGVDVVGAP”, 0.139. For “HMDAVTYAKGSSGETVREIQQLLLDWGYYSGEVDGIFGSRTEDAVEYFQRKNGLTVDGKVGPATLEALGIS” the value was -0.349. For “HMDAYMIGHNIAKWRKEKGMTQDQLAEHLSVSGQAVSKWENGASLPDIAILPKLAEIFDVTMDQLFSR” the value was 0.166. In the case of “HMDDAIAEKTGGAVSSVNQRQAILDHIREAYGIELESLRSTDIERYLDDPEIPEPVKDILRDRLRGAK”, the “soluble fraction (log2)” value came out at 0.0292. As for “HMDDDAELLLKKLSAAGGELPFHDRSEPAEIEAAFGLSKSAFKRALGKLLKAGKVVKTQQGIQLK”, the figure is 0.266. As for “HMDDDIKNALDVLPEQYRMTVYYADVEGLAYKEIGAIMNTPIGTVMSRIHRGRSQLRVLLAAVAADR”, the figure is -0.0958; as for “HMDDFITLVIHTPAHAQNLRNILESHGMEVRLEDFVSFKSPVAVAQRVKIRPKDLPLALKIIESGE”, 0.126; as for “HMDDFVEIDGKKYEIDMSFDNILRLFDLLKDKSLNDVTKIETGLIMLIDDSLDDYDTEEKADIFVQIF”, 0.22. For “HMDDGALQIRLGPQALQQRLDKLGYSLNKEDLDLVYQYFLHSADSKGAVYDQELRELMGEAGVE”, the “soluble fraction (log2)” value was -0.607. With “HMDDIHTFVYETETPFDPQKLDRYIGSLTAVYGQDMLRYKGILYFAGVDRRVVFQGVHMLAV”, the “soluble fraction (log2)” value was -0.353. For “HMDDILAYEIEDKEDLENLSLGKSIGINLNKLIKPTLNSFDNSLLFLSKKGNIISYGKLNGDLFKPKKVL” the value was -0.454.

As to “HMDDINVSNSKNIVPNVTGHTGSKAIPVLENLGLDVQYSGFGKVTNQSIPAGTRFKKGETIYLMLE”, the “soluble fraction (log2)” value was -0.0218. As to “HMDDIVFPNPTKNQINVSIDGLKNIYNLSGKLLISTNDKIIDVSILKAGVYFINTNEQFYKFVK”, the “soluble fraction (log2)” value was -0.797. As for “HMDDIVPHSTKNHIIKTFLSLMNSLDIITDKNKKSLNQNVHIIFNKFNFSKKEANLFIGVLNRIQKALK”, the figure is 0.134; as for “HMDDLFGNAIEMFNNQRYDMTYELLVQLLSETPNNEKAWQLLADTKFMLGDYDDALHIVGKAAK”, -1.36; as for “HMDDPWHNLANAIVAVAADDYRSALRNEDEGLLKSLELFFHSEWYRILTDVDADRLLGMLRRERS”, -1.14. As for “HMDDTPLNNVIKKIAALPENITLADKSAVLSAWEAYQALSVNLKAQVSNSELLIKAYETILQLEGEDQIK”, the figure is -0.397; as for “HMDDYRIEDMMTVVEEQVIRQKETNLSWFFKRAGSLNEIITIFLAALELIKVHRVYVKQEHNFDDIILRKE”, -0.872. As to “HMDEAAGVLTQLRAFIAASNLSPGLRLPPERELAEQLGVTRAELRKALAVLEAEGLLWRQVGKGTFYGARP”, the “soluble fraction (log2)” value is -0.523.

As for “HMDEAEELYQAVQALKPKYREVILLHYYQGLRVGEIAAILRAPQSTVSIRLRRARQMLNRMLG”, the “soluble fraction (log2)” value is -0.0788.

As for “HMDEALLRATLLDVLVKHHPKIGDKLDVVFALAKAWVSSGSDDDFEVLEKYMERLKPDEALMLASGFSNML”, the “soluble fraction (log2)” value is -0.819.

“HMDEDTWKLYKRAYKKYYARYMKGNMSEAAFKAWGEQAAADRDAAIEQLRATTDAALSASIIQQLKEKLNR”: the “soluble fraction (log2)” value came to 0.22.

With “HMDEEDVLNELIRRLALTADDRLLLSLSYEDGLSSRKIATLLETSAATVQRRLAGLHHQLEQALRVMGLA”, the “soluble fraction (log2)” value is -0.828. Consider “HMDEEGDALDREYEDQIRLGDEAFDAEDWTSAQRAYTAALELRPDERYPKNRLRRLASLQEDV”, for which the “soluble fraction (log2)” value was 0.161. For the sequence “HMDEETVALQKAIHSLPPKQQAVFNMRYYDEMSFREIADANETTESSAKANYHFAKAKIIEQMKR”, the “soluble fraction (log2)” value came to 0.166. As to “HMDEILHHPSYRAIYEYMLDHKHVKTKDIAALLNVKEPRARQLLKEMIDKHFIIALGSNRNREYELL”, the “soluble fraction (log2)” value was found to be 0.348. For “HMDEKSGWLHLAPHEGALRAALYAEHAVQEERTAPDGSQWLRLVLREKHYHQIQSKYNRRLTLHTQPDPS” the value was at least 0.43.

As to “HMDENDPYEILEIDRLASDDQVKAKYRALIRENHPDVLMAKGVPQEFIDLANRKMAVINAAYDRIEKEREF”, the “soluble fraction (log2)” value is -0.616. For “HMDEPGAGYKWREDVLLRVMASHGIEESLRDDFVRHAVGFDNDDNMYLKKVEIENAAAAWVAN” the value was -1.36. For “HMDETELLLQKAIATLPDKQRVVFNLKYFDEMKYEEMSELLETSVGALKASYHLAVKKIEQFFHDA” the value was -0.241; for “HMDETYRRQLEDLAREHGAEYLHGILREVDPASAEAIHANNIKRVIRALEFYHLSGKKISEHNETERQ”, -0.00358; for “HMDEVHYLADKERGTTWEEILIHADRDIKFLSLSATINNKNEFLEWLVSLRGTTSLIHSSTRPIPLEI”, -0.682. In the case of “HMDEVLDQFVRGQIYGYIRANPGDIYSSIRDNLGLKNGVTTYHLDVLAREEYVYSEIDGTNRRFYPSGWEE”, the “soluble fraction (log2)” value is -2.23. For “HMDEVVVVERGGVQITMSEIDAKIMELPVDVRPSYLDSPERLQNFVSNLLLEKQAAQLKSQY” the value was -1.42; for “HMDEWDPAILYVGLDYEDAAQIATRLATSGVPYRLSPDGTMITVPDDQVNNMRLTLAGEGFPH”, -1.12; for “HMDEYFNPETVVHYLRELFDTYRENGGNPFEWFHSTFESVNLNPQNYRKDLITTIEKALIEWIEIFEKQ”, -0.553. As for “HMDFDPDVPSREDILQAFRDSKPPLTVNALISEFGLSRDASIVGLERRMGAMQRDGQLEQTPSGWQLSV”, the figure is 0.144.

“HMDFFVLVGAYKTPDEAETIRAKIAFSGLDSSVSHGNDGRYRVRIGPFHSEGDARKAQSTLRANDIPGQII”: the “soluble fraction (log2)” value was determined as 0.18. As for “HMDFGMPEELQKKLDKMPALKAAFEALTPGRQRGYIFYFSQPKQSKTRELRIEKSIEQIMNGKGLND”, the figure is 0.199.

Regarding “HMDFIEYIISEESKGLRADQAISMENDKFSRSLIQKWIKKGRVLVNGRKIKPKDIVNLNDKITINPEESIN”, the “soluble fraction (log2)” value was -0.597. For “HMDFITPYEIEQGQYEGAELYEDGKFEEAFSLSSIAAQRGMKTAQYLLGIMFLKGEYVDQSLAIGMAW” the value was -1.18; for “HMDFPYISGIEIAAIKNREFIRIETDKAQEIAIALDKSGIPFSARFSDAEMVLTYDGSYKEQVEDIIAKA”, -0.808. For “HMDFSERLARAMSLAGYTQGRLAKEVGMAQSSVNKLLNGANGSRKTVEIASVLGVRPEWLSTGAGEML” the value was 0.0512.
